Here are results for 1 protein from patent US20060234944.

In one data set the target is T1, substrate EEISEVNLAAEF
T1 chain: EEISEVNLAAEF

The target in a further data set is T2, substrate RWHHEVNLAAEF
T2 chain: RWHHEVNLAAEF

In the next data set the target is T3, substrate EVNLAVEFWHDR
T3 chain: EVNLAVEFWHDR

B1: memapsin 2 (spontaneously activated promemapsin 2-T1; amino acids 43-456 and 45-456 of SEQ ID NO: 8) (protein)
chain: LRLPRETDEEPEEPGRRGSFVEMVDNLRGKSGQGYYVEMTVGSPPQTLNILVDTGSSNFAVGAAPHPFLHRYYQRQLSSTYRDLRKGVYVPYTQGKWEGELGTDLVSIPHGPNVTVRANIAAITESDKFFINGSNWEGILGLAYAEIARPDDSLEPFFDSLVKQTHVPNLFSLQLCGAGFPLNQSEVLASVGGSMIIGGIDHSLYTGSLWYTPIRREWYYEVIIVRVEINGQDLKMDCKEYNYDKSIVDSGTTNLRLPKKVFEAAVKSIKAASSTEKFPDGFWLGEQLVCWQAGTTPWNIFPVISLYLMGEVTNQSFRITILPQQYLRPVEDVATSQDDCYKFAISQSSTGTVMGAVIMEGFYVVFDRARKRIGFAVSACHVHDEFRTAAVEGPFVTLDMEDCGYNIPQTDEST
Regarding B1, the “rate of catalysis in competitive cleavage assay (MALDI-TOF), relative to EVNLAAEFWHDR” value with substrate EEISEVNLAAEF is “statistically identical rates of catalysis for the upstream EEIS (SEQ ID NO: 52) and the downstream WHDR (SEQ ID NO: 29) sequence additions”; with substrate RWHHEVNLAAEF it was “a 60-fold decrease in the rate of catalysis for the upstream RWHH (SEQ ID NO: 53) sequence addition when compared to the downstream WHDR (SEQ ID NO: 29) sequence addition”. Besides, the Km entry with substrate EVNLAVEFWHDR was “Km of 83±8.9 mM”.
